From PMC7469880

Biological target: FIRΔexon2-FLAG (splice variant of FIR lacking exon 2, FLAG-tagged) (human)
Assay: co-IP

amount detected relative to the FIR–FLAG complex (1.0)	Substance
0.35	SAP130 (subunit of splicing factor 3b), endogenous in HeLa (from UniProt Q15393 1-1217) (natural protein)
0.1	SAP155 (subunit of splicing factor 3b), endogenous in HeLa (from UniProt O75533 1-1304) (natural protein)
